We go through 1 molecule from publication doi:10.1101/2024.04.05.588290, “An optical aptamer-based cytokine nanosensor detects macrophage activation by bacterial toxins”.

This series deals with interleukin-6 (IL-6), human recombinant (Homo sapiens, UniProt P05231 30-212). As to the kind of experiment: SWCNT near-infrared fluorescence quenching, (7,5) chirality; SWCNT complex, 5250 ng/mL IL-6, 1X PBS, 3 h; no response, p=0.65903; 0.5 mg/L SWCNT-ssDNA in 1X PBS (or 1X PBS + 10% FBS), 5250 ng/mL IL-6, 120 uL, triplicate, up to 180 min; pH and temperature not stated. As to conditions: protein: commercial; label: noncovalently adsorbed on SWCNT.
Chain of interleukin-6 (IL-6), human recombinant (P05231 30-212): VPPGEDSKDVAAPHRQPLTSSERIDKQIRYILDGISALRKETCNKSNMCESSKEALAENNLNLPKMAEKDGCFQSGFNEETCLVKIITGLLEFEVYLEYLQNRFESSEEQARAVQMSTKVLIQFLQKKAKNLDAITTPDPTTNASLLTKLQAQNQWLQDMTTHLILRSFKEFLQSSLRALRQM

Regarding GTGTGTGTGTGTGTGTGTGTGTGTGTGTGT (ssDNA) [(GT)15], the binding result was “no binding”.
